Assay results as given in patent publication US20080063717A1.

Tests used:
[1] = biological target: human NKp30 receptor (human); assay: cell-based or functional assay
[2] = biological target: NKp46 receptor (human) (UniProt O76036); assay: cell-based or functional assay
UniProt O76036, sequence (O76036 22-304): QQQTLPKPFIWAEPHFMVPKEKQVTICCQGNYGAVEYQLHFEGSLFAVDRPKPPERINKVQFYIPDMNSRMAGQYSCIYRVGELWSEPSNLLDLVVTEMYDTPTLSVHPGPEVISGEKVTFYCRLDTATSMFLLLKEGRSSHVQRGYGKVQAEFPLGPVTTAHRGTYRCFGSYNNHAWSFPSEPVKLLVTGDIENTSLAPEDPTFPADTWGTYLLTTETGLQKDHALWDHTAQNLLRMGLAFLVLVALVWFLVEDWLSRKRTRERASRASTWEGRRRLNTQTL

human NKp30 receptor (human), sequence (chain, as listed by the source limits assumed): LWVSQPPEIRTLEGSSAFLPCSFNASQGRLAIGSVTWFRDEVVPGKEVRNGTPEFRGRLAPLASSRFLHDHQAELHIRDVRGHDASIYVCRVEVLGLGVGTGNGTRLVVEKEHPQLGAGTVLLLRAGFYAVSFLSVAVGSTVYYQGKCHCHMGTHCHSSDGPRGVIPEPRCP

cells in the culture at day 6 that underwent more than 5 divisions (CFSE) [1] [%]	cells remaining with fluorescence intensity equivalent to resting cells (no division), CFSE, day 6 [1] [%]	dose to obtain 50% of maximum effect (NK cell proliferation from PBMC, titration of antibody with IL-2 and IL-15, 3 donors) [1] [µg/mL]	plateau of the antibody's effect on NK cell proliferation (titration with IL-2 and IL-15, 3 donors) [1] [µg/mL]	cells remaining with fluorescence intensity equivalent to resting cells (no division), CFSE, day 6 [2] [%]	Substance
> 80	5	< 0.1	1		AZ20 (anti-NKp30) monoclonal antibody
				11	Bab281 (anti-NKp46) monoclonal antibody
